B1: PTS system glucose-specific EIICB component (Escherichia coli (strain K12)), P69786 (parent)
chain: MFKNAFANLQKVGKSLMLPVSVLPIAGILLGVGSANFSWLPAVVSHVMAEAGGSVFANMPLIFAIGVALGFTNNDGVSALAAVVAYGIMVKTMAVVAPLVLHLPAEEIASKHLADTGVLGGIISGAIAAYMFNRFYRIKLPEYLGFFAGKRFVPIISGLAAIFTGVVLSFIWPPIGSAIQTFSQWAAYQNPVVAFGIYGFIERCLVPFGLHHIWNVPFQMQIGEYTNAAGQVFHGDIPRYMAGDPTAGKLSGGFLFKMYGLPAAAIAIWHSAKPENRAKVGGIMISAALTSFLTGITEPIEFSFMFVAPILYIIHAILAGLAFPICILLGMRDGTSFSHGLIDFIVLSGNSSKLWLFPIVGIGYAIVYYTIFRVLIKALDLKTPGREDATEDAKATGTSEMAPALVAAFGGKENITNLDACITRLRVSVADVSKVDQAGLKKLGAAGVVVAGSGVQAIFGTKSDNLKTEMDEYIRNH
partner: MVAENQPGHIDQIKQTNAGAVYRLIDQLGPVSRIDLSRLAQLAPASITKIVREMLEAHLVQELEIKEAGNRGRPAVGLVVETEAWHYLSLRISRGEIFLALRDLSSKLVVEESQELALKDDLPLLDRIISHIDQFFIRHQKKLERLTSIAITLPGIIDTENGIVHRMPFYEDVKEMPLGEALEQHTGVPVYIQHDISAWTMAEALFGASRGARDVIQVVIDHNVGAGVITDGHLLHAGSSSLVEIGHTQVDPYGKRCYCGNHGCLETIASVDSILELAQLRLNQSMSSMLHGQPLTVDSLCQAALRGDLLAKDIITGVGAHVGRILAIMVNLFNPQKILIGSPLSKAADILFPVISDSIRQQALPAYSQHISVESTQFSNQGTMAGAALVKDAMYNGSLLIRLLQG

Variants of B1 are the subject of this experiment. The following applies: with mlc_ecoli mlc.
Take A451F: the “effect of a mutation on the interaction” value is listed as “decreasing interaction”.
Under V449Q stands “disrupting interaction”; under Q456A, “disrupting interaction”.
